# Results taken from IntAct's records for PubMed 16697956.
# B1: BH3-interacting domain death agonist (Homo sapiens), P55957 (parent)
# chain: MDCEVNNGSSLRDECITNLLVFGFLQSCSDNSFRRELDALGHELPVLAPQWEGYDELQTDGNRSSHSRLGRIEADSESQEDIIRNIARHLAQVGDSMDRSIPPGLVNGLALQLRNTSRSEEDRNRDLATALEQLLQAYPRDMEKEKTMLVLALLLAKKVASHTPSLLRDVFHTTVNFINQNLRTYVRSLARNGMD
# B2: Bcl-2-like protein 2 (Homo sapiens), Q92843 (parent)
# chain: MATPASAPDTRALVADFVGYKLRQKGYVCGAGPGEGPAADPLHQAMRAAGDEFETRFRRTFSDLAAQLHVTPGSAQQRFTQVSDELFQGGPNWGRLVAFFVFGAALCAESVNKEMEPLVGQVQEWMVAYLETQLADWIHSSGGWAEFTALYGDGALEEARRLREGNWASVRTVLTGAVALGALVTVGAFFASK
# B3: BH3-interacting domain death agonist (Homo sapiens), P55957 (parent)
# chain: B1 chain
# partner: B2 chain
# B4: BH3-interacting domain death agonist (Homo sapiens), P55957 (parent)
# chain: B1 chain
# partner: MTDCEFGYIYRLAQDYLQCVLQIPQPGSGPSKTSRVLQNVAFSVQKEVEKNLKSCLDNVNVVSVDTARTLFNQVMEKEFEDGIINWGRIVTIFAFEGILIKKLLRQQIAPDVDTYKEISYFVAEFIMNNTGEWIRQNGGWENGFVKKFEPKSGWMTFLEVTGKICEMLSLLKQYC
# Variants of: B1
# Settings: with bcl2_human BCL2, P10415
# Sequence of bcl2_human BCL2, P10415 (P10415 whole entry): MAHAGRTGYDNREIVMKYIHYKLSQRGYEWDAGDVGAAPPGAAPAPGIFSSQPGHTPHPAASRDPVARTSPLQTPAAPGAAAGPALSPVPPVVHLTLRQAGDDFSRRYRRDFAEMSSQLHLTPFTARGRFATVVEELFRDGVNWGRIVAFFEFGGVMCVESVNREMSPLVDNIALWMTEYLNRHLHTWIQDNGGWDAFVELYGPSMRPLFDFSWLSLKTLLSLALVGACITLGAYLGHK
row,Variant,effect of a mutation on the interaction
1,L90A;D95A,disrupting interaction

# Variants of: B1
# Settings: with BCL2L1, Q07817
# Sequence of BCL2L1, Q07817 (Q07817 whole entry): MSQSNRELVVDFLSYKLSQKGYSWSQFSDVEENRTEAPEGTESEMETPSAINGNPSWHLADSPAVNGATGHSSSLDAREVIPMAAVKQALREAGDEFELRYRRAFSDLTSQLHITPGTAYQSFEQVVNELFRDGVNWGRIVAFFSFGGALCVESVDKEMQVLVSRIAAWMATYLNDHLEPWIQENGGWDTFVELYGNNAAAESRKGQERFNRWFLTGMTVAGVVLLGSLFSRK
row,Variant,effect of a mutation on the interaction
1,L90A;D95A,disrupting interaction

# Variants of: B1
# Settings: with mcl1_human MCL1, Q07820
# Sequence of mcl1_human MCL1, Q07820 (Q07820 whole entry): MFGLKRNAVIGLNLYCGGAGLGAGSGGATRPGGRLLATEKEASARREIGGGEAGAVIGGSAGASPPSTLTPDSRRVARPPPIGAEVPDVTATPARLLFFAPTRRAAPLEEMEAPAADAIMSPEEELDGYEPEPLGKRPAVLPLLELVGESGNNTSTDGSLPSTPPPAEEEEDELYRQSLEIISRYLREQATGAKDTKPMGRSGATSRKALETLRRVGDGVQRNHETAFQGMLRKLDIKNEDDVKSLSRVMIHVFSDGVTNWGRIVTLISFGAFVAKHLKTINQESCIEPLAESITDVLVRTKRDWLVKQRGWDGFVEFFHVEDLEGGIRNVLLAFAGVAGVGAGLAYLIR
row,Variant,effect of a mutation on the interaction
1,L90A;D95A,disrupting interaction

# Variants of: B2
# Settings: with bid_mouse Bid
row,Variant,effect of a mutation on the interaction
1,R95P,disrupting interaction

# Variants of: B3
# Settings: with BCL2L2, Q92843
row,Variant,effect of a mutation on the interaction
1,L90A;D95A,disrupting interaction

# Variants of: B4
# Settings: with BCL2A1, Q16548
row,Variant,effect of a mutation on the interaction
1,L90A;D95A,disrupting interaction
